Data as given in US20140087995A1 (published 2014).
Numbered stars: 1 amine (or outer) side, 2 acyl side, 3 side chain; on linkers, the order of the positions; unused ones are H or OH. Bridge positions count the residues as written; N and C are the ends. * marks the point of attachment. C20 diacid = O=C(O)CCCCCCCCCCCCCCCCCCC(=O)*; γGlu = O=C(O)[C@H](CCC(=O)[*:2])N[*:1]; AEEA = NCCOCCOCC(=O)O

T1: human amylin receptor (amylin 3(a) receptor: human calcitonin receptor plus RAMP-3) (human, UniProt P30988 25-474; O60896 24-148, limits assumed)
T1 sequence (looked up) 1: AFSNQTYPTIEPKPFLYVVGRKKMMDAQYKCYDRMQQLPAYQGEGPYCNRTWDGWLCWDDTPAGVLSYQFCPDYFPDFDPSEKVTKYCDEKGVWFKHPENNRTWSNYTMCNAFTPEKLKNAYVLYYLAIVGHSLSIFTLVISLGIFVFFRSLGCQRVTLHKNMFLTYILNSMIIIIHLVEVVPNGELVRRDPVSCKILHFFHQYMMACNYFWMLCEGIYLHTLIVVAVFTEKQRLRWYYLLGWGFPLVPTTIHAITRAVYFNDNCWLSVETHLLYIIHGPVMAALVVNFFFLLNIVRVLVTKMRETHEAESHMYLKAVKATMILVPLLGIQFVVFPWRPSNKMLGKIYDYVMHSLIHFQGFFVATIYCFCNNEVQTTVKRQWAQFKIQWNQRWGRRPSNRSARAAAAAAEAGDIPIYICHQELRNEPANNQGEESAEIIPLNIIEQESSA
T1 sequence (looked up) 2: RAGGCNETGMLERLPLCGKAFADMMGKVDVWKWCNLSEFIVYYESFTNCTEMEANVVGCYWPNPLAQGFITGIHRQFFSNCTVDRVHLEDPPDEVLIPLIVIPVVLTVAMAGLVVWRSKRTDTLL

T2: human calcitonin receptor (human, UniProt P30988 25-474)
T2 sequence (looked up): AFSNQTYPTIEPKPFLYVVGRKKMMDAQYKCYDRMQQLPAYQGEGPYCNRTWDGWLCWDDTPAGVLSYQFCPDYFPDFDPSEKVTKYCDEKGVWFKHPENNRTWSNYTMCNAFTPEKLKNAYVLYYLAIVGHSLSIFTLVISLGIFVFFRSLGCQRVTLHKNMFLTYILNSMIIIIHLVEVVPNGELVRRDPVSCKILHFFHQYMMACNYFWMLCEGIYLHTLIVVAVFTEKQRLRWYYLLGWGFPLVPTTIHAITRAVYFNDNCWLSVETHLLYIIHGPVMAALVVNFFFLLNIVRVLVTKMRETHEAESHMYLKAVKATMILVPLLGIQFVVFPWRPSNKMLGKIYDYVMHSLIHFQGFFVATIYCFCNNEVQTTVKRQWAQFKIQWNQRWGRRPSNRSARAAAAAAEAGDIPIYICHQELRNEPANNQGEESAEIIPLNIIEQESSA


What was measured:
[1] = target: T1, human amylin receptor (amylin 3(a) …); experiment: cell-based or functional assay
[2] = target: T2, human calcitonin receptor; experiment: cell-based or functional assay
[3] = target: T1, human amylin receptor (amylin 3(a) …); experiment: SPA competition binding, membranes of Amylin 3(a)/CRE-luc BHK cells, displacement of 125I-rat amylin (Assay V)
Description: The binding assay was performed using scintillation proximity assay (SPA) beads (RPNQ0001) from PerkinElmer and cell membranes from the Amylin 3(a)/CRE-luc cells (as described in Assay (II)) were used. Membranes were prepared in the following way; the cells were rinsed with PBS and incubated with Versene for approximately 5 min before harvesting. The cells were flushed with PBS and the cell-suspension was centrifuged for 5 min at 1000 rpm. Cells were homogenized (ultrathurrax) in a buffer containing 20 mM Na-HEPES and 10 mM EDTA (pH 7.4) and centrifuged at 20.000 rpm for 15 min. The resulting pellet was resuspended, homogenized and centrifuged (20.000 rpm, 15 min) in a buffer containing 20 mM Na-HEPES and 0.1 mM EDTA (pH 7.4, buffer 2). The resulting pellet was resuspended in buffer 2 and protein concentration was measured (BCA protein Assay, Pierce). The homogenate was kept cold during the whole procedure. The membranes were kept at −80° C. until use. The assay was performed in a 384 well Optiplate (PerkinElmer) in a total volume of 40 ul. Membranes were mixed with SPA beads. Final concentration of membranes 35 ng/μL final and SPA beads was 0.05 mg/well. Test-compounds were dissolved in DMSO and further diluted in assay buffer (50 mM Hepes, pH 7.4, 1 mM CaCl2, 5 mM MgCl₂, 0.1% OA and 0.02% Tween20). […] The final mixture was incubated with shaking at 400 rpm for 120 min at 25° C. prior to centrifugation (1500 rpm, 10 min). Samples were analyzed on TopCounter™ (Packard). The IC₅₀ was calculated using (one site binding competition analysis) GraphPad Prism5 as a measure of receptor affinity.

Binder	hAmylin-R funct. EC50 [1] [nM]	Ratio hCT/hAmylin funct. (hCTR EC50 against hAmylin-R EC50) [2]	hCTR funct. EC50 [2] [nM]	IC50 [3] [nM]
KCNTATCATQRLAEFLRHSSPNFGAIPSSTNVGSNTY (C20 diacid-gGlu on the alpha amino group of the N-terminal residue; Cys2-Cys7 disulfide and C-terminal amide as in human amylin, also called compound 9) [N^α1-[(4S)-4-carboxy-4-(19-carboxynonadecanoylamino)butanoyl]-[Glu14,Arg17,Pro21,Pro27]-h-amylin]	0.175	7.4	1.29	0.143
KCNTATCATQRLANFLRHSSPNFGAIPSSTNVGSNTY (C20 diacid-gGlu-2xOEG on the alpha amino group of the N-terminal residue; Cys2-Cys7 disulfide and C-terminal amide as in human amylin, also called compound 24)	0.433	23.1	10	1.14
{C20 diacid-γGlu-AEEA-AEEA}-KCNTATCATQRLAEFLRHSSPNFGAIPSSTNVGSNTP-NH2 (disulfide 2-7; SMILES CC[C@H](C)[C@H](NC(=O)[C@H](C)NC(=O)CNC(=O)[C@H](Cc1ccccc1)NC(=O)[C@H](CC(N)=O)NC(=O)[C@@H]1CCCN1C(=O)[C@H](CO)NC(=O)[C@H](CO)NC(=O)[C@H](Cc1c[nH]cn1)NC(=O)[C@H](CCCNC(=N)N)NC(=O)[C@H](CC(C)C)NC(=O)[C@H](Cc1ccccc1)NC(=O)[C@H](CCC(=O)O)NC(=O)[C@H](C)NC(=O)[C@H](CC(C)C)NC(=O)[C@H](CCCNC(=N)N)NC(=O)[C@H](CCC(N)=O)NC(=O)[C@@H](NC(=O)[C@H](C)NC(=O)[C@@H]1CSSC[C@H](NC(=O)[C@H](CCCCN)NC(=O)COCCOCCNC(=O)COCCOCCNC(=O)CC[C@H](NC(=O)CCCCCCCCCCCCCCCCCCC(=O)O)C(=O)O)C(=O)N[C@@H](CC(N)=O)C(=O)N[C@@H]([C@@H](C)O)C(=O)N[C@@H](C)C(=O)N[C@@H]([C@@H](C)O)C(=O)N1)[C@@H](C)O)C(=O)N1CCC[C@H]1C(=O)N[C@@H](CO)C(=O)N[C@@H](CO)C(=O)N[C@H](C(=O)N[C@@H](CC(N)=O)C(=O)N[C@H](C(=O)NCC(=O)N[C@@H](CO)C(=O)N[C@@H](CC(N)=O)C(=O)N[C@H](C(=O)N1CCC[C@H]1C(N)=O)[C@@H](C)O)C(C)C)[C@@H](C)O, also called compound 20)	0.08	3.6	0.285	0.217
